Data on eight molecules can be found in patent US20210388087A1 (Chugai, published 2021).

The labels stand for the following.
B1: CE115HA000/GLS3000 T92S (antibody, IgG1, name in Kabat numbering, V domains shown)
VH: QVQLVESGGGVVQPGRSLRLSCAASGFTFSNAWMHWVRQAPGKGLEWVAQIKAKSNNYATYYAESVKGRFTISRDDSKNSLYLQMNSLKTEDTAVYYCRYVHYGAYYGVDAWGQGTTVTVSS
VL: DIVMTQSPLSLPVTPGEPASISCRSSQSLVHSNRNTYLHWYQQKPGQAPRLLIYKVSNRFSGVPDRFSGSGSGTDFTLKISRVEAEDVGVYYCGQGSQVPYTFGQGTKLEIK
notes: one-arm IgG1
B2: CE115HA000/GLS3000 V27cI (antibody, IgG1, name in Kabat numbering, V domains shown)
VH: QVQLVESGGGVVQPGRSLRLSCAASGFTFSNAWMHWVRQAPGKGLEWVAQIKAKSNNYATYYAESVKGRFTISRDDSKNSLYLQMNSLKTEDTAVYYCRYVHYGAYYGVDAWGQGTTVTVSS
VL: DIVMTQSPLSLPVTPGEPASISCRSSQSLIHSNRNTYLHWYQQKPGQAPRLLIYKVSNRFSGVPDRFSGSGSGTDFTLKISRVEAEDVGVYYCGQGTQVPYTFGQGTKLEIK
notes: one-arm IgG1
B3: CE115HA000/GLS3000 T97P (antibody, IgG1, name in Kabat numbering, V domains shown)
VH: QVQLVESGGGVVQPGRSLRLSCAASGFTFSNAWMHWVRQAPGKGLEWVAQIKAKSNNYATYYAESVKGRFTISRDDSKNSLYLQMNSLKTEDTAVYYCRYVHYGAYYGVDAWGQGTTVTVSS
VL: DIVMTQSPLSLPVTPGEPASISCRSSQSLVHSNRNTYLHWYQQKPGQAPRLLIYKVSNRFSGVPDRFSGSGSGTDFTLKISRVEAEDVGVYYCGQGTQVPYPFGQGTKLEIK
notes: one-arm IgG1
B4: CE115HA000/GLS3000 V27cE (antibody, IgG1, name in Kabat numbering, V domains shown)
VH: QVQLVESGGGVVQPGRSLRLSCAASGFTFSNAWMHWVRQAPGKGLEWVAQIKAKSNNYATYYAESVKGRFTISRDDSKNSLYLQMNSLKTEDTAVYYCRYVHYGAYYGVDAWGQGTTVTVSS
VL: DIVMTQSPLSLPVTPGEPASISCRSSQSLEHSNRNTYLHWYQQKPGQAPRLLIYKVSNRFSGVPDRFSGSGSGTDFTLKISRVEAEDVGVYYCGQGTQVPYTFGQGTKLEIK
notes: one-arm IgG1
B5: CE115HA000/GLS3000 V27cL (antibody, IgG1, name in Kabat numbering, V domains shown)
VH: QVQLVESGGGVVQPGRSLRLSCAASGFTFSNAWMHWVRQAPGKGLEWVAQIKAKSNNYATYYAESVKGRFTISRDDSKNSLYLQMNSLKTEDTAVYYCRYVHYGAYYGVDAWGQGTTVTVSS
VL: DIVMTQSPLSLPVTPGEPASISCRSSQSLLHSNRNTYLHWYQQKPGQAPRLLIYKVSNRFSGVPDRFSGSGSGTDFTLKISRVEAEDVGVYYCGQGTQVPYTFGQGTKLEIK
notes: one-arm IgG1
B6: CE115HA000/GLS3000 T92Y (antibody, IgG1, name in Kabat numbering, V domains shown)
VH: QVQLVESGGGVVQPGRSLRLSCAASGFTFSNAWMHWVRQAPGKGLEWVAQIKAKSNNYATYYAESVKGRFTISRDDSKNSLYLQMNSLKTEDTAVYYCRYVHYGAYYGVDAWGQGTTVTVSS
VL: DIVMTQSPLSLPVTPGEPASISCRSSQSLVHSNRNTYLHWYQQKPGQAPRLLIYKVSNRFSGVPDRFSGSGSGTDFTLKISRVEAEDVGVYYCGQGYQVPYTFGQGTKLEIK
notes: one-arm IgG1
B7: CE115HA000/GLS3000 V27cD (antibody, IgG1, name in Kabat numbering, V domains shown)
VH: QVQLVESGGGVVQPGRSLRLSCAASGFTFSNAWMHWVRQAPGKGLEWVAQIKAKSNNYATYYAESVKGRFTISRDDSKNSLYLQMNSLKTEDTAVYYCRYVHYGAYYGVDAWGQGTTVTVSS
VL: DIVMTQSPLSLPVTPGEPASISCRSSQSLDHSNRNTYLHWYQQKPGQAPRLLIYKVSNRFSGVPDRFSGSGSGTDFTLKISRVEAEDVGVYYCGQGTQVPYTFGQGTKLEIK
notes: one-arm IgG1
B8: CE115HA000/GLS3000 V27cP (antibody, IgG1, name in Kabat numbering, V domains shown)
VH: QVQLVESGGGVVQPGRSLRLSCAASGFTFSNAWMHWVRQAPGKGLEWVAQIKAKSNNYATYYAESVKGRFTISRDDSKNSLYLQMNSLKTEDTAVYYCRYVHYGAYYGVDAWGQGTTVTVSS
VL: DIVMTQSPLSLPVTPGEPASISCRSSQSLPHSNRNTYLHWYQQKPGQAPRLLIYKVSNRFSGVPDRFSGSGSGTDFTLKISRVEAEDVGVYYCGQGTQVPYTFGQGTKLEIK
notes: one-arm IgG1

T1 sequence (P07766 23-126): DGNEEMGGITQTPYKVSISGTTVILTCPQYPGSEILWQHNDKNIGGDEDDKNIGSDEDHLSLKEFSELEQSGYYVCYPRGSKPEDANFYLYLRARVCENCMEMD

This experiment has as its target T1, CD3 epsilon homodimer protein (UniProt P07766 23-126).
T1 construct: also called CD3 (CD3 epsilon)
As to the kind of experiment: SPR, antibody over immobilised CD3e homodimer.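 Further: SPR at 25 °C with CD3 epsilon homodimer amine-coupled to a CM4 sensor chip and antibody flowed over as analyte in HBS-EP+ running buffer.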
For B1, the “KD ratio to GLS3000” value worked out at 0.81. Under B2 stands 1.03; under B3, 3.35. Under B4 stands 1.1; under B5, 0.81. Under B6 stands 2.55; under B7, 3.21.

As to B8, the “KD ratio to GLS3000” value stood at 3.71.
